In this data set the test system is DUX4-mir-675Res. The data set can be described thus: Western blot against mir-675-resistant DUX4 construct (CMV.DUX4-mir-675Res) in HEK293 cells. The data set is classed as cell-based, human. Conditions: FIG. 20; blinded western blot. The text has this:
Sequence Generation and Cloning. All miRNAs used in this study were designed as previously reported in [Wallace et al., Mol. Ther. Methods Clin. Dev. 8:121-130 (2018)]. All miDUX4s were cloned into the mir-30 based/U6 construct as previously described [Wallace et al., Mol. Ther. 20:1417-23 (2012)]. MicroRNA-675 sequence was obtained from the miRBase database (www.mirbase.org), and all mir-675 constructs used in this study were cloned into an expression plasmid downstream of an RNA polymerase III class of promoters (U6 or H1 promoters). The sequence of the stem loop structure of mir-675, mir-675-5p and mir-675-3p constructs is shown in FIG. 17A-B. The CMV.H19 construct was purchased from OriGene. The psi2-DUX4FI was PCR amplified using the AAV.CMV.DUX44V5 construct as template, and the following primers: forward primer: […] (SEQ ID NO: 127), and reverse primer: […] (SEQ ID NO: 128). The PCR product was then cloned into a previously designed psicheck2 (psi2) SD5 mutant (Renilla luciferase have the SD5 mutant) plasmid [Ansseau et al., Plos One 10: e0118813 (2015)] using XhoI/SpeI restriction sites and the psi2.SD5 mutant-DUX4 3′UTR plasmid backbone. […] In addition, this plasmid contains a cytomegalovirus promoter (CMVp)-driven DUX4 full-length sequence encompassing the DUX4 open reading frame (DUX4 ORF), the DUX4 3′UTR sequence (pLAM sequence). […]
A general note: A western blot detects proteins with antibodies after separation by electrophoresis.

This is an account of results in patent US20240093191A1, “COMPOSITIONS AND METHODS FOR TREATING DISEASE ASSOCIATED WITH DUX4 OVEREXPRESSION” (RESEARCH INSTITUTE AT NATIONWIDE CHILDREN'S HOSPITAL, priority 2021, published 2024).

B1: U6.mir-675: U6 promoter-driven mir-675 expression plasmid with 40 nt 5' and 47 nt 3' flanking sequences (nucleic acid)
DNA: GACGCCGCCATCTCTAGGCCCGCGCCGGCCCCCTCGCACAGACTTGTGGGAGAAGCTCGGCTACTCCCCTGCCCCGGTTAATTTGCATATAATATTTCCTAGTAACTATAGAGGCTTAATGTGCGATAAAAGACAGATAATCTGTTCTTTTTAATACTAGCTACATTTTACATGATAGGCTTGGATTTCTATAAGAGATACAAATACTAAATTATTATTTTAAAAAACAGCACAAAAGGAAACTCACCCTAACTGTAAAGTAATTGTGTGTTTTGAGACTATAAATATCCCTTGGAGAAAAGCCTTGTTTGCGTTTAGTGAACCGTCAGATGGTACCGTTTAAACTCGAGCCCAGGGTCTGGTGCGGAGAGGGCCCACAGTGGACTTGGTGACGCTGTATGCCCTCACCGCTCAGCCCCTGGGACTAGAGCGGCCGCCACAGCGGGGAGATCCAGACATGATAAGATACATTTTTT
In the case of B1, the “effect on DUX4 protein level of mir-675-resistant DUX4 construct” value is reported as “not able to reduce DUX4 protein level”.

B2: H1.mir-675: commercially available H1 promoter mir-675 expression plasmid (SBI Biosciences) (nucleic acid)
DNA: GAACGCTGACGTCATCAACCCGCTCCAAGGAATCGCGGGCCCAGTGTCACTAGGCGGGAACACCCAGCGCGCGTGCGCCCTGGCAGGAAGATGGCTGTGAGGGACAGGGGAGTGGCGCCCTGCAATATTTGCATGTCGCTATGTGTTCTGGGAAATCACCATAAACGTGAAATGTCTTTGGATTTGGGAATCTTATAAGTTCTGTATGAGACCACCCCCCAGGGTCTGGTGCGGAGAGGGCCCACAGTGGACTTGGTGACGCTGTATGCCCTCACCGCTCAGCCCCTGGGGAATTCTTCGATTCTGCTTTTTT
Consider B2, for which the “effect on DUX4 protein level of mir-675-resistant DUX4 construct” value is “not able to reduce DUX4 protein level”.
